Laboratory results: publication PMC10257715, “Allosteric activation of cell wall synthesis during bacterial growth” (Nature Communications, 2023)

Molecular target: the molecule itself
Experiment: cryo-EM structure; purified RodA-PBP2 complex in 0.02% DDM, 350 mM NaCl, 20 mM HEPES pH 7.5; Titan Krios 300 kV; low-resolution maps

B1: Escherichia coli PBP2, wild type, of ^EcRodA-PBP2^WT (cryo-EM sample) (enzyme, UniProt P0AD65 1-633, looked up)
chain: MKLQNSFRDYTAESALFVRRALVAFLGILLLTGVLIANLYNLQIVRFTDYQTRSNENRIKLVPIAPSRGIIYDRNGIPLALNRTIYQIEMMPEKVDNVQQTLDALRSVVDLTDDDIAAFRKERARSHRFTSIPVKTNLTEVQVARFAVNQYRFPGVEVKGYKRRYYPYGSALTHVIGYVSKINDKDVERLNNDGKLANYAATHDIGKLGIERYYEDVLHGQTGYEEVEVNNRGRVIRQLKEVPPQAGHDIYLTLDLKLQQYIETLLAGSRAAVVVTDPRTGGVLALVSTPSYDPNLFVDGISSKDYSALLNDPNTPLVNRATQGVYPPASTVKPYVAVSALSAGVITRNTTLFDPGWWQLPGSEKRYRDWKKWGHGRLNVTRSLEESADTFFYQVAYDMGIDRLSEWMGKFGYGHYTGIDLAEERSGNMPTREWKQKRFKKPWYQGDTIPVGIGQGYWTATPIQMSKALMILINDGIVKVPHLLMSTAEDGKQVPWVQPHEPPVGDIHSGYWELAKDGMYGVANRPNGTAHKYFASAPYKIAAKSGTAQVFGLKANETYNAHKIAERLRDHKLMTAFAPYNNPQVAVAMILENGGAGPAVGTLMRQILDHIMLGDNNTDLPAENPAVAAAEDH
notes: Forms dimers of the RodA-PBP2 complex when overexpressed; also called ^EcPBP2; ^EcWT; source: overexpressed, purified
Q: B1 was tested. Which “stoichiometry N” value did it give?
A: The value was 2.
